Measured values taken from patent US20130115645.

Target: human prothrombin (Enzyme Research Laboratories), P00734

B1: Fibrinogen-like protein 2 (FGL-2)/fibroleukin, human (protein)
chain: NNETEEIKDERAKDVCPVRLESRGKCEEAGECPYQVSLPPLTIQLPKQFSRIEEVFKEVQNLKEIVNSLKKSCQDCKLQADDNGDPGRNGLLLPSTGAPGEVGDNRVRELESEVNKLSSELKNAKEEINVLHGRLEKLNLVNMNNIENYVDSKVANLTFVVNSLDGKCSKCPSQEQIQSRPVQHLIYKDCSDYYAIGKRSSETYRVTPDPKNSSFEVYCDMETMGGGWTVLQARLDGSTNFTRTWQDYKAGFGNLRREFWLGNDKIHLLTKSKEMILRIDLEDFNGVELYALYDQFYVANEFLKYRLHVGNYNGTAGDALRFNKHYNHDLKFFTTPDKDNDRYPSGNCGLYYSSGWWFDACLSANLNGKYYHQKYRGVRNGIFWGTWPGVSEAHPGGYKSSFKEAKMMIRPKHFKP
FGL-2 prothrombinase activity (thrombin generation assay, chromogenic substrate, 405 nm): FGL-2 prothrombinase activity in HUVEC was only observed following maximal stimulation with TNFα
